Assay results as given in patent publication US20080020412A1, “Aurora expression constructs” (priority 2006, published 2008).

T1: mouse Aurora-A (Mus musculus, UniProt P97477, K218R/M280L/N164G)
T1 construct: mouse Aurora-A residues 98-395; GST (N, cleaved yes); made in house; host or cells: E. coli BL21(DE3) Star, co-expressed with lambda phosphatase; a second 98-395 preparation came from insect cells
T1 sequence (P97477 with tags, fused parts or gaps N164G/K218R/M280L): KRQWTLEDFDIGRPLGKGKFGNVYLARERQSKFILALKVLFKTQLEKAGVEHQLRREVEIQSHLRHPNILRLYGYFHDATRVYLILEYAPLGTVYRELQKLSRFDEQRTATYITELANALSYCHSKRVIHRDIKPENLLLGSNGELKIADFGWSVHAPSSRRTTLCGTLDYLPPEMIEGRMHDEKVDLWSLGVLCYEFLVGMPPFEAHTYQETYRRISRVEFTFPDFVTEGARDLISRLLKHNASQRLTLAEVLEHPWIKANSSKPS


Assays:
[1] = system: mouse Aurora-A; test: Aurora-A activity assay (HTRF, enzyme and ATP titrations, histone H3 peptide substrate); assay type: biochemical; conditions: for Km / Vmax/[enzyme]: ATP titration; for Km: 120 nM biotinylated histone H3 peptide, 25° C., fit in GraphPad Prism; for Vmax/[enzyme]: ΔF/hr per nM enzyme
Description: (§1) Protein samples were diluted to 1 mg/mL and incubated for 2 hrs at 4° C. with 1 mM ATP and 5 mM MgCl2. Excess ATP was removed by extensive dialysis against 50 mM Tris-HCl pH 7.5, 200 mM NaCl, and 3 mM DTT.
(§2) Aurora A was titrated twofold in an assay buffer composed of 10 mM Tris-HCl pH 7.2, 10 mM MgCl2, 0.1% BSA, 0.01% Triton X-100 and 1 mM DTT, and containing 120 nM of biotinylated histone H3 substrate peptide (Upstate Biotechnology). The kinase reactions were initiated by adding 10 μL ATP to a final volume of 60 μL and the final ATP concentration of 20 μM. The reactions were incubated at 25° C. for 60 min and terminated by adding EDTA to a final concentration of 200 mM.
(§3) To determine the Km for ATP, ATP was titrated twofold in the assay buffer. The kinase reaction was initiated by adding 50 μL Aurora A (16 nM of insect cell-produced mouse enzyme with residues 98-395, 8 nM of the bacterially produced enzyme with residues 98-395, and 30 nM of the E. coli-expressed crystallography construct with residues 116-381) and histone H3 to a final volume of 60 μL and a final concentration of 120 nM.
(§4) To detect the assay product, the kinase reaction solution was combined with the detection buffer (the KF buffer) supplemented with 0.4 ng/μL phospho-histone H3 europium cryptate-conjugated antibody and 16 nM streptavidin-XL665 (both from Cisbio) in a 1:1 ratio in a 384-well plate. The mixture was incubated for 45 minutes at 25° C. and the plate was then scanned on the Analyst AD system. The fluorescence value F is defined as the ratio of fluorescent emissions at 620 and 665 nm. ΔF was generated by subtracting the average F value for negative control for enzyme activity from the F value in each reaction well. ΔF was plotted against enzyme concentration (for enzyme titrations) or against ATP concentration (for ATP titrations) with GraphPad Prism. The Km values and confidence intervals were determined by fitting the ATP titration curve in GraphPad Prism to the following equation: y=(Vmax*x)/(Km+x), where y is ΔF/hr and x is an ATP concentration.

[2] = Electrospray mass spectrometry of purified protein for proteolysis between residues 291 and 292; assay type: physicochemical; conditions: expressed in E. coli, GST-tagged protein
From the text: mAurB 7X was expressed in E. coli, purified as described below, and analyzed by electrospray mass spectrometry to verify the integrity of the purified protein. […] A construct missing the Val291→Ser and Met258→Lys mutations (referred to as mAurB 5X) was purified, and analyzed by mass spec to determine the extent of proteolysis between Val291 and Lys292. Even in this wild type configuration, proteolysis still affected approximately 25% of total GST-tagged protein. Two additional conservative mutations were introduced to eliminate the major site of proteolysis: Val291→Leu and Lys292→Arg referred to as mAurB 8X VK→LR (5′ primer: SEQ ID NO:53; 3′ primer: SEQ ID NO:54) and Val291→Leu and Lys292→Gln referred to as mAurB 8X VK→LQ (5′ primer: SEQ ID NO:55; 3′ primer: SEQ ID NO:56). The protein sequences of the mAurB 8X VK→LR and mAurB 8X VK→LQ are provided in SEQ ID NO:57 and SEQ ID NO:58, respectively.

[3] = target: T2, mouse Aurora-B (Mus musculus, UniProt O70126, L215S/L233S/M258K/P302T/P322T/V291S/W318S); test: Aurora-B enzyme activity assay (HTRF); assay type: biochemical; conditions: 20 nM construct against 300 nM commercially available Aurora-B
T2 construct: made in house; host or cells: E. coli BL21(DE3) Star
Description: Aurora-B enzyme preparations were tested for kinase activity in the presence and absence of compounds using a homogeneous time resolved fluorescence (HTRF) assay. In brief, the assay was performed by adding enzyme under appropriate reaction conditions to a tagged substrate. After the kinase reaction proceeds, quenching reagent is added, along with a first molecule consisting of a fluorescence donor conjugated to an antibody recognizing the phosphorylated substrate, and a second molecule that recognizes the tag and that is conjugated to a fluorescence acceptor. The extent of the kinase reaction is measured by time-resolved fluorescence transfer from the fluorescence donor to the fluorescence acceptor in a detection buffer, which occurs when the donor and acceptor are in proximity to one another on the phosphorylated substrate.
The assay was carried out as follows. […]
A 5 μL aliquot of the quenched reaction was transferred to a separate plate containing 5 μL detection buffer (final concentrations: 125 ng/mL europium cryptate-conjugated α-phospho H3 antibody, 8 nM streptavidin-tagged XL665, 25 mM HEPES buffer (pH 7.0), 0.25 M KF, and 0.05% BSA). The detection solution was allowed to incubate at room temperature for 45 min, after which the detection reactions were read on an Analyst AD (LJL Biosystems). […] Delta F is a value calculated from the ratio between the 665 nm and 620 nm emissions. […]

[4] = target: T1, mouse Aurora-A; test: Aurora-A activity assay (HTRF, enzyme and ATP titrations, histone H3 peptide substrate); assay type: biochemical; conditions: compared with the longer construct, FIG. 4
Description: as §1, §2, §3, §4

Molecule | Km [1] | Vmax/[enzyme] [1] | extent of proteolysis between residue 291 and Lys292 [2] | activity compared with commercially available Aurora-B [3] | change in Km for ATP (in words) [4] | enzyme activity (in words) ([1]; H3 peptide as substrate, FIG. 4)
insect cell-expressed 98-395: insect cell-produced mouse Aurora-A enzyme with residues 98-395 (human residues 107-403) (protein, UniProt P97477 98-395, looked up, fragment) GNDSEKEQASLQKTEDTKKRQWTLEDFDIGRPLGKGKFGNVYLARERQSKFILALKVLFKTQLEKANVEHQLRREVEIQSHLRHPNILRLYGYFHDATRVYLILEYAPLGTVYRELQKLSKFDEQRTATYITELANALSYCHSKRVIHRDIKPENLLLGSNGELKIADFGWSVHAPSSRRTTMCGTLDYLPPEMIEGRMHDEKVDLWSLGVLCYEFLVGMPPFEAHTYQETYRRISRVEFTFPDFVTEGARDLISRLLKHNASQRLTLAEVLEHPWIKANSSKPPTGHTSKEPTSKSS | 13.6 ± 3.9 µM | 590 h⁻¹ nM⁻¹ |  |  |  | 
E. coli-produced 98-395: bacterially produced mouse Aurora-A residues 98-395 with three humanizing and stabilizing mutations (protein, Mutated Constructs, bacterially produced mouse Aurora-A residues 98-395 with three humanizing and stabilizing mutations) GNDSEKEQASLQKTEDTKKRQWTLEDFDIGRPLGKGKFGNVYLARERQSKFILALKVLFKTQLEKAGVEHQLRREVEIQSHLRHPNILRLYGYFHDATRVYLILEYAPLGTVYRELQKLSRFDEQRTATYITELANALSYCHSKRVIHRDIKPENLLLGSNGELKIADFGWSVHAPSSRRTTLCGTLDYLPPEMIEGRMHDEKVDLWSLGVLCYEFLVGMPPFEAHTYQETYRRISRVEFTFPDFVTEGARDLISRLLKHNASQRLTLAEVLEHPWIKANSSKPPTGHTSKEPTSKSS | 10.5 ± 3.5 µM | 1035 h⁻¹ nM⁻¹ |  |  |  | 
mAurB 7X: truncated mouse Aurora-B with 7 hydrophobic surface residues mutated, GST-tagged (protein, listed as Mus musculus, GST tag, truncated mouse Aurora-B with 7 hydrophobic surface residues mutated, GST-tagged) KRQFTIDNFEIGRPLGKGKFGNVYLAREKKSRFIVALKILFKSQIEKEGVEHQLRREIEIQAHLKHPNILQLYNYFYDQQRIYLILEYAPRGELYKELQKSRTFDEQRTATIMEELSDALTYCHKKKVIHRDIKPENLLLGSQGELKIADFGWSVHAPSSRRKTMCGTLDYLPPEMIEGRMHNEKVDLWCIGVLCYELMVGNPPFESPSHSETYRRISKVDLKFPSSVTSGAQDLISKLLKHNPSQRLTLAEVAAHPWVRANSRRPS |  |  | Approximately 50% | compares favorably |  | 
E. coli-produced 116-381: E. coli-expressed mouse Aurora-A crystallography construct, residues 116-381 (human residues 125-391) (protein, Mutated Constructs) KRQWTLEDFDIGRPLGKGKFGNVYLARERQSKFILALKVLFKTQLEKAGVEHQLRREVEIQSHLRHPNILRLYGYFHDATRVYLILEYAPLGTVYRELQKLSRFDEQRTATYITELANALSYCHSKRVIHRDIKPENLLLGSNGELKIADFGWSVHAPSSRRTTLCGTLDYLPPEMIEGRMHDEKVDLWSLGVLCYEFLVGMPPFEAHTYQETYRRISRVEFTFPDFVTEGARDLISRLLKHNASQRLTLAEVLEHPWIKANSSKPS | 65.3 ± 16.1 µM | 280 h⁻¹ nM⁻¹ |  |  | substantial increase in the Km for ATP | less active
